According to article PMC10786404:

Columns and labels:
[1] = target: protease activated receptor 2 (PAR2) (human (endogenous in Caco-2)) (UniProt P55085)
[2] = target: protease activated receptor 2 (PAR2) (human (endogenous in Caco-2)) (UniProt P55085); remark: listed apart in the source
[3] = target: protease activated receptor 2 (PAR2) (human (endogenous in Caco-2)) (UniProt P55085); remark: listed apart in the source
[4] = target: protease activated receptor 2 (PAR2) (human (endogenous in Caco-2)) (UniProt P55085); remark: listed apart in the source
[5] = target: protease activated receptor 2 (PAR2) (human (endogenous in Caco-2)) (UniProt P55085); remark: listed apart in the source

Sequence of UniProt P55085 (P55085 37-397): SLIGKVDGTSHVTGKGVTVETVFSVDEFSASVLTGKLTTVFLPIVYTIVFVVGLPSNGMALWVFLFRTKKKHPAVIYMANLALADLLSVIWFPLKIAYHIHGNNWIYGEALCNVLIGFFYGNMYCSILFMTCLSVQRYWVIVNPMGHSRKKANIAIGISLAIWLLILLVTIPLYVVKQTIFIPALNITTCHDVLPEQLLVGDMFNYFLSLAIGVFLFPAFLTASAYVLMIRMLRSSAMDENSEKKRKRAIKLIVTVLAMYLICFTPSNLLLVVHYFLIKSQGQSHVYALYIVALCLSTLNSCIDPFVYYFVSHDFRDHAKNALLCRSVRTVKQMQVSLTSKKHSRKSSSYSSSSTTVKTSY

Recombinant Trichinella spiralis trypsin, C-terminal domain (rTsTryp) (from UniProt E5RYV9 1-667)
ZO-1 mRNA (qPCR) in Caco-2 cells treated with rTsTryp, against the DMSO group; restored by AZ3451 pretreatment [1]: 55.9 % decrease
occludin mRNA (qPCR) in Caco-2 cells treated with rTsTryp, against the DMSO group; restored by AZ3451 pretreatment [1]: 52.4 % decrease
level of phosphorylated ERK1/2 (Western blot) in the Caco-2 monolayer after 2 h with rTsTryp, against the PBS group [2]: 210 % increase
ZO-1 protein (Western blot) in the Caco-2 monolayer treated with rTsTryp, against the DMSO group; abrogated by AZ3451 pretreatment [3]: 56.5 % decrease
occludin protein (Western blot) in the Caco-2 monolayer treated with rTsTryp, against the DMSO group; abrogated by AZ3451 pretreatment [3]: 49 % decrease
promotion of IIL larval invasion of the Caco-2 monolayer by 12, 16 and 20 μg/ml rTsTryp, against the PBS group [4]: 40.2 % promotion
flux of 4 kDa FITC-dextran (FD4) through the Caco-2 monolayer, rTsTryp group against the PBS group (fold of the PBS group) [5]: 2
